Test results from patent publication US20240254223A1 (NOVIMMUNE, published 2024).

Tests used:
[1] = target: T1, low-moderate affinity dimeric IL-2R (IL-2Rβ and IL-2Rγ) on HEK-Blue CD122/CD132 cells (UniProt P14784 27-551; P31785 23-369, limits assumed); experiment: cell-based or functional assay
T1 sequence (looked up) 1: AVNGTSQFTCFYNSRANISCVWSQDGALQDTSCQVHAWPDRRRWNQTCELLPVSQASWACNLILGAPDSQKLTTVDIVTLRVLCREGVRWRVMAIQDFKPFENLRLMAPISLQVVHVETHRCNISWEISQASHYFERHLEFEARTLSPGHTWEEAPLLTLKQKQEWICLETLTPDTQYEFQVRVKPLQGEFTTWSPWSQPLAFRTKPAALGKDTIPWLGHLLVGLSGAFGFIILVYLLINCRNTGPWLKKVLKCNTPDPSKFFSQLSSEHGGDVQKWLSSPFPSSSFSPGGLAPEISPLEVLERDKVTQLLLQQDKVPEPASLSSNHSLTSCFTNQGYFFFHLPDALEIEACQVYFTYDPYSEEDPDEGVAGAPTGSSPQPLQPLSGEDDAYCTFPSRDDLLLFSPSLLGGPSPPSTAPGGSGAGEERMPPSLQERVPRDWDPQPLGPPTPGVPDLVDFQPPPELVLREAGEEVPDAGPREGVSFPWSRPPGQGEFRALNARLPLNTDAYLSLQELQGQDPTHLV
T1 sequence (looked up) 2: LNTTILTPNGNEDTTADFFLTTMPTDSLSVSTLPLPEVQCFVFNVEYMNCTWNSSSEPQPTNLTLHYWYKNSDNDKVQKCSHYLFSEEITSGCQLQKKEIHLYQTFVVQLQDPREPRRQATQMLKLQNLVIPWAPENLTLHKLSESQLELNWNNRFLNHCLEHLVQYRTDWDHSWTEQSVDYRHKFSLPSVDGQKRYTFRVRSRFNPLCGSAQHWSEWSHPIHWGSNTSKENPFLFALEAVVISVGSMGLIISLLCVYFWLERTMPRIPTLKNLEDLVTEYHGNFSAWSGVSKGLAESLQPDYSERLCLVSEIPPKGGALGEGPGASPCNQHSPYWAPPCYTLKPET

[2] = target: T2, CD47 at the surface of Peak cells (human, UniProt Q08722 19-323); experiment: flow cytometry, Peak cells, before cleavage
T2 construct: whole, on cells; also called cell surface CD47
Experimental: (§1) Binding activity of antibody-cytokine/receptor fusions before and after cleavage was also evaluated by flow cytometry. Peak cells derived from HEK 293 which are human cells expressing CD47 were used to evaluate masking efficacy and binding recovery to CD47 by flow cytometry. Peak cells were diluted in cold FACS buffer (PBS, 2% BSA) to 1.2×10⁶ cells/mL. 3×10⁵ cells/well were added in a 96 well V-bottom plate. The plate was then centrifugated for 5 min at 1300 rpm, 4° C. Supernatants were removed and cells were washed twice using FACS buffer. A serial dilution of antibody-cytokine/receptor fusions previously digested with MMP-9 or not digested as described above was prepared in FACS buffer. An irrelevant antibody was included. Then, 150 μL of each diluted antibody were added in corresponding well and incubated for 30 min at 4° C. Cells were washed twice with FACS buffer and 100 μL of a mouse anti human Fc-PE conjugated secondary antibody were added and the plate was incubated for 20 min at 4° C. Cells were then washed twice with FACS buffer. Finally, 150 μL of SYTOX blue dead cell stain (ThermoFisher) diluted to 1/5000 in FACS buffer were added before detection by flow cytometry with Cytoflex (Beckman Coulter). Acquisition was performed with 10000 events for each well. Data were analyzed by FlowJo software.

His-tagged human CD47 = target: T3, His-tagged human CD47 (human, UniProt Q08722 19-139, limits assumed); experiment: BLI, His-CD47 on HIS1K sensor, antibody 15 µg/mL
T3 construct: loaded on HIS1K biosensors at 2.5 µg/mL; also called target antigen; not shown: His tag
Experimental: The capacity of the masking domains to inhibit binding activity of the antibody was evaluated by Bio-Layer Interferometry (BLI). […] Binding experiments were performed to evaluate the masking efficiency and the binding recovery after cleavage of the masking domains. BLI was performed on an Octet RED96 system (Sartorius). His-tagged human CD47 was diluted at 2.5 μg/mL in Kinetic Buffer (KB) (Sartorius) and loaded on HIS1K biosensors (anti-His tag antibody biosensors, Sartorius) for 300 seconds. Loaded biosensors were dipped into antibodies diluted at 15 μg/mL in KB for 300 seconds to monitor association. Then, biosensors were transferred in KB for dissociation for 60 seconds. Binding profiles were then analyzed with ForteBio Data Analysis software.

[3] = target: T4, high affinity trimeric IL-2R (IL-2Rα, IL-2Rβ and IL-2Rγ) on HEK-Blue IL-2 cells (UniProt P01589 22-272; P14784 27-551; P31785 23-369); experiment: cell-based or functional assay
T4 sequence (looked up) 1: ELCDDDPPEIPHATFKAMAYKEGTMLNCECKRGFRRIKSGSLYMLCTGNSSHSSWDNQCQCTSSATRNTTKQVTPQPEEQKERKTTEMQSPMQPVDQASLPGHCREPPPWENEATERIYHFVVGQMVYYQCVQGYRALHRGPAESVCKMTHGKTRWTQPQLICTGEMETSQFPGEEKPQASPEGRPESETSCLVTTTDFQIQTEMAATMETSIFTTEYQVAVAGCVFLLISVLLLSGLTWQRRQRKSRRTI
T4 sequence (looked up) 2: T1 sequence (looked up) 1
T4 sequence (looked up) 3: T1 sequence (looked up) 2

[4] = target: T2, CD47 at the surface of Peak cells; experiment: flow cytometry, Peak cells; EC50 before / EC50 after cleavage
Experimental: as §1

[5] = target: T2, CD47 at the surface of Peak cells; experiment: flow cytometry, Peak cells
Experimental: as §1

B1: pNOVI V2K K91_IL-2Rα CM1_VKCK_IL-2_CM1_VHCH (antibody, human IgG1, kappa)
light: ELCDDDPPEIPHATFKAMAYKEGTMLNCECKRGFRRIKSGSLYMLCTGNSSHSSWDNQCQCTSSATRNTTKQVTPQPEEQKERKTTEMQSPMQPVDQASLPGHCREPPPWENEATERIYHFVVGQMVYYQCVQGYRALHRGPAESVCKMTHGKTRWTQPQLICTGEMETSQFPGEEKPQASPEGRPESETSCLVTTTDFQIQTEMAATMETSIFTTEGGGGSVHMPLGFLGPGGSDIQMTQSPSSLSASVGDRVTITCNVDQVIANWLNWYQQKPGKAPKLLIYAASSLQSGVPSRFSGSGSGTDFTLTISSLQPEDFATYYCQQMHPRAPKQFGQGTKVEIKRTVAAPSVFIFPPSDEQLKSGTASVVCLLNNFYPREAKVQWKVDNALQSGNSQESVTEQDSKDSTYSLSSTLTLSKADYEKHKVYACEVTHQGLSSPVTKSFNRGEC
heavy: not shown
notes: masked K91 fusion, uncleaved; also called n690; construct No 690
EC50 before cleavage IL-2, HEK Blue IL-2 βγ reporter assay [1]: 0.12 nM | EC50 ratio (BC/AC), HEK Blue IL-2 βγ reporter assay [1]: 4 | EC50 [2]: 8.7 nM | Binding before cleavage (BLI) (His-tagged human CD47): 1.2 nm | EC50 before cleavage IL-2, HEK Blue IL-2 αβγ reporter assay [3]: 0.07 nM | EC50 ratio (BC/AC), HEK Blue IL-2 αβγ reporter assay [3]: 1 | Binding recovery (BC/AC) [4]: 20

B2: pNOVI V2K K91 (antibody, human IgG1, kappa)
light: DIQMTQSPSSLSASVGDRVTITCNVDQVIANWLNWYQQKPGKAPKLLIYAASSLQSGVPSRFSGSGSGTDFTLTISSLQPEDFATYYCQQMHPRAPKQFGQGTKVEIKRTVAAPSVFIFPPSDEQLKSGTASVVCLLNNFYPREAKVQWKVDNALQSGNSQESVTEQDSKDSTYSLSSTLTLSKADYEKHKVYACEVTHQGLSSPVTKSFNRGEC
heavy: not shown
notes: also called n46; construct No 46
Binding before cleavage (BLI) (His-tagged human CD47): 1.8 nm | EC50 [5]: 0.062 nM

B3: pNOVI V2K K91_IL-2 CM1_VHCH (antibody, human IgG1, kappa)
light: B2 light
heavy: not shown
notes: masked K91 fusion, uncleaved; also called n13; construct No 13
Binding before cleavage (BLI) (His-tagged human CD47): 2.3 nm

B4: pNOVI V2K K91_IL15_CM1_VHCH (antibody)
light: B2 light
heavy: not shown
notes: masked K91 fusion, uncleaved; 49% aggregates; also called n111; construct No 111
Binding before cleavage (BLI) (His-tagged human CD47): 1.5 nm

B5: pNOVI V2K K91_IL-2 CM1_CM2_VHCH (antibody, human IgG1, kappa)
light: B2 light
heavy: not shown
notes: masked K91 fusion, uncleaved; also called n17; construct No 17
Binding before cleavage (BLI) (His-tagged human CD47): 2.2 nm

B6: pNOVI V2K K33 (antibody, human IgG1, kappa)
light: DIQMTQSPSSLSASVGDRVTITCRASQSISSYLNWYQQKPGKAPKLLIYAASSLQSGVPSRFSGSGSGTDFTLTISSLQPEDFATYYCQQFHKRSPQKFGQGTKVEIKRTVAAPSVFIFPPSDEQLKSGTASVVCLLNNFYPREAKVQWKVDNALQSGNSQESVTEQDSKDSTYSLSSTLTLSKADYEKHKVYACEVTHQGLSSPVTKSFNRGEC
heavy: not shown
notes: also called n22; construct No 22
Binding before cleavage (BLI) (His-tagged human CD47): 1.3 nm
